Experiment [1] addresses Human Broccoli Ndc80-GFP complex (human) (UniProt O14777).
Experiment [2] has the same target. Put plainly: fluorescence microscopy of microtubules on protein-coated beads (dynamic MT end-coupling assay); beads coated with Ndc80-GFP only (no CENP-E) via anti-GFP antibody; GMPCPP-stabilized MT seeds, then unlabeled soluble tubulin (6 µM) with 1 mM Mg-GTP; 32 °C.
For experiment [3], the target named is Xenopus laevis CENP-E-GFP construct (1–473 aa), truncated CENP-E motor (Xenopus laevis). Description: fluorescence microscopy of microtubules on protein-coated beads (MT wall-to-end transition assay); GFP-tagged protein held on coverslip-immobilized 0.9 µm streptavidin beads via biotinylated anti-GFP antibody, one protein per bead; HiLyte647-labeled GMPCPP-stabilized MTs in solution; MTs added with 0.1 mM AMP-PNP, then imaging buffer with ATP; BRB80-based buffer; 32 °C; epifluorescence.

A value given as a limit tells only on which side of the number the result lay.

UniProt O14777, sequence (O14777 whole entry, looked up, one chain of several): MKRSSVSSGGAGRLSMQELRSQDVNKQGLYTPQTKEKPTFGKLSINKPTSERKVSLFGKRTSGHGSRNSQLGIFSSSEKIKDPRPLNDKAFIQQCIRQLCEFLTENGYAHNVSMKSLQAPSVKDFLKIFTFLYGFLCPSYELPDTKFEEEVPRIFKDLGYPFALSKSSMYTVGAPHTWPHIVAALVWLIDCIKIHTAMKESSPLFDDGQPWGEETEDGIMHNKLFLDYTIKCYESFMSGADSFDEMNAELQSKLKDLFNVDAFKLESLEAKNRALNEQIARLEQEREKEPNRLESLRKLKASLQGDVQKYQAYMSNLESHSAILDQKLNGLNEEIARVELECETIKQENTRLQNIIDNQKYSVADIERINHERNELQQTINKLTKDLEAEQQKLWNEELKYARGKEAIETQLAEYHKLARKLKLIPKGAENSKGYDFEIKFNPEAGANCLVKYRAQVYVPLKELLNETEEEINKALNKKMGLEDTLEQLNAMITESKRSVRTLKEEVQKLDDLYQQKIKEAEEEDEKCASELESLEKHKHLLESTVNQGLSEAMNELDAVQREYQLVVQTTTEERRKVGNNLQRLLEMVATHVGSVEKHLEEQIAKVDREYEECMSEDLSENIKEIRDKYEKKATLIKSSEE

On to “Microtubules polymerised from bovine brain tubulin (from UniProt Q6B856 1-445) (complex)”, for which, in experiment [1], the Kaplan–Meier survival of MT end-attachments on beads coated with CENP-E motor and Ndc80 Broccoli is greater than 28 min; the MT end-retention time on beads coated with CENP-E motor and Ndc80 Broccoli (wall-to-end transition assay) was determined as 18.1 min; the percent of MT plus-ends retained on beads coated with CENP-E motor and Ndc80 Broccoli (wall-to-end transition assay) amounted to 80%. The substance further came in with a percent of MT segments attached via their ends in experiment [2] of 3%. Further, in experiment [3], the MT end-retention time came out at 1.1 min and the percent of MT plus-ends retained at the bead amounted to 24%.

The values above are taken from publication PMC6459870.
